Source: the Human Domainome abundance scans (Beltran et al. 2025)
± gives the uncertainty stated by the source.

B1: REST corepressor 3, residues 87 to 134; numbered along this chain, Q9P2K3 (parent)
chain: DEWTVEDKVLFEQAFSFHGKSFHRIQQMLPDKTIASLVKYYYSWKKTR

Variants of: B1
Experiment: abundance fitness (aPCA) (normalised: wild type 0, dead -1); higher = more abundant; growth selection in yeast, the domain comes from the species named
Conditions: Homo sapiens

Variant	abundance fitness
DEWTVEVKVLFEQAFSFHGKSFHRIQQMLPDKTIASLVKYYYSWKKTR	-0.687 ± 0.21
DEWTVESKVLFEQAFSFHGKSFHRIQQMLPDKTIASLVKYYYSWKKTR	-0.611 ± 0.17
DEWTVEQKVLFEQAFSFHGKSFHRIQQMLPDKTIASLVKYYYSWKKTR	-0.156 ± 0.22
DEWTVETKVLFEQAFSFHGKSFHRIQQMLPDKTIASLVKYYYSWKKTR	-0.708 ± 0.43
DEWTVEWKVLFEQAFSFHGKSFHRIQQMLPDKTIASLVKYYYSWKKTR	-0.762 ± 0.36
DEWTVEYKVLFEQAFSFHGKSFHRIQQMLPDKTIASLVKYYYSWKKTR	-0.686 ± 0.45
DEWTVEDHVLFEQAFSFHGKSFHRIQQMLPDKTIASLVKYYYSWKKTR	-0.594 ± 0.32
DEWTVEDLVLFEQAFSFHGKSFHRIQQMLPDKTIASLVKYYYSWKKTR	-0.779 ± 0.38
DEWTVEDSVLFEQAFSFHGKSFHRIQQMLPDKTIASLVKYYYSWKKTR	-0.822 ± 0.36
DEWTVEDGVLFEQAFSFHGKSFHRIQQMLPDKTIASLVKYYYSWKKTR	-0.673 ± 0.12
DEWTVEDIVLFEQAFSFHGKSFHRIQQMLPDKTIASLVKYYYSWKKTR	-0.388 ± 0.5
DEWTVEDVVLFEQAFSFHGKSFHRIQQMLPDKTIASLVKYYYSWKKTR	-0.625 ± 0.21
DEWTVEDTVLFEQAFSFHGKSFHRIQQMLPDKTIASLVKYYYSWKKTR	-0.542 ± 0.32
DEWTVEDMVLFEQAFSFHGKSFHRIQQMLPDKTIASLVKYYYSWKKTR	-0.035 ± 0.13
DEWTVEDQVLFEQAFSFHGKSFHRIQQMLPDKTIASLVKYYYSWKKTR	-0.457 ± 0.38
DEWTVEDPVLFEQAFSFHGKSFHRIQQMLPDKTIASLVKYYYSWKKTR	-0.763 ± 0.32
DEWTVEDRVLFEQAFSFHGKSFHRIQQMLPDKTIASLVKYYYSWKKTR	-0.434 ± 0.13
DEWTVEDKVLLEQAFSFHGKSFHRIQQMLPDKTIASLVKYYYSWKKTR	-1.14 ± 0.36
DEWTVEDKVLPEQAFSFHGKSFHRIQQMLPDKTIASLVKYYYSWKKTR	-0.834 ± 0.39
DEWTVEDKVLSEQAFSFHGKSFHRIQQMLPDKTIASLVKYYYSWKKTR	-0.736 ± 0.27
DEWTVEDKVLAEQAFSFHGKSFHRIQQMLPDKTIASLVKYYYSWKKTR	-0.715 ± 0.19
DEWTVEDKVLGEQAFSFHGKSFHRIQQMLPDKTIASLVKYYYSWKKTR	-0.768 ± 0.23
DEWTVEDKVLDEQAFSFHGKSFHRIQQMLPDKTIASLVKYYYSWKKTR	-0.873 ± 0.44
DEWTVEDKVLEEQAFSFHGKSFHRIQQMLPDKTIASLVKYYYSWKKTR	-0.769 ± 0.36
DEWTVEDKVLVEQAFSFHGKSFHRIQQMLPDKTIASLVKYYYSWKKTR	-0.812 ± 0.2
DEWTVEDKVLCEQAFSFHGKSFHRIQQMLPDKTIASLVKYYYSWKKTR	-0.265 ± 0.26
DEWTVEDKVLFEQYFSFHGKSFHRIQQMLPDKTIASLVKYYYSWKKTR	-0.578 ± 0.38

Variant	abundance fitness
DEWTVEDKVLFEQIFSFHGKSFHRIQQMLPDKTIASLVKYYYSWKKTR	-0.655 ± 0.44
DEWTVEDKVLFEQTFSFHGKSFHRIQQMLPDKTIASLVKYYYSWKKTR	-0.609 ± 0.31
DEWTVEDKVLFEQWFSFHGKSFHRIQQMLPDKTIASLVKYYYSWKKTR	-0.664 ± 0.21
DEWTVEDKVLFEQFFSFHGKSFHRIQQMLPDKTIASLVKYYYSWKKTR	-0.453 ± 0.33
DEWTVEDKVLFEQKFSFHGKSFHRIQQMLPDKTIASLVKYYYSWKKTR	-0.393 ± 0.41
DEWTVEDKVLFEQRFSFHGKSFHRIQQMLPDKTIASLVKYYYSWKKTR	-0.635 ± 0.2
DEWTVEDKVLFEQLFSFHGKSFHRIQQMLPDKTIASLVKYYYSWKKTR	-0.392 ± 0.19
DEWTVEDKVLFEQCFSFHGKSFHRIQQMLPDKTIASLVKYYYSWKKTR	-0.71 ± 0.29
DEWTVEDKVLFEQEFSFHGKSFHRIQQMLPDKTIASLVKYYYSWKKTR	-0.811 ± 0.46
DEWTVEDKVLFEQGFSFHGKSFHRIQQMLPDKTIASLVKYYYSWKKTR	-0.73 ± 0.18
DEWTVEDKVLFEQSFSFHGKSFHRIQQMLPDKTIASLVKYYYSWKKTR	-0.993 ± 0.36
DEWTVEDKWLFEQAFSFHGKSFHRIQQMLPDKTIASLVKYYYSWKKTR	-0.18 ± 0.24
DEWTVEDKNLFEQAFSFHGKSFHRIQQMLPDKTIASLVKYYYSWKKTR	0.166 ± 0.22
DEWTVEDKILFEQAFSFHGKSFHRIQQMLPDKTIASLVKYYYSWKKTR	0.032 ± 0.27
DEWTVEDKFLFEQAFSFHGKSFHRIQQMLPDKTIASLVKYYYSWKKTR	-0.531 ± 0.38
DEWTVEDKDLFEQAFSFHGKSFHRIQQMLPDKTIASLVKYYYSWKKTR	-0.258 ± 0.2
DEWTVEDKLLFEQAFSFHGKSFHRIQQMLPDKTIASLVKYYYSWKKTR	-0.28 ± 0.19
DEWTVEDKGLFEQAFSFHGKSFHRIQQMLPDKTIASLVKYYYSWKKTR	-0.17 ± 0.13
DEWTVEDKTLFEQAFSFHGKSFHRIQQMLPDKTIASLVKYYYSWKKTR	-0.024 ± 0.23
DEWTVEDKYLFEQAFSFHGKSFHRIQQMLPDKTIASLVKYYYSWKKTR	-0.581 ± 0.3
DEWTVEDKELFEQAFSFHGKSFHRIQQMLPDKTIASLVKYYYSWKKTR	-0.302 ± 0.14
DEWTVEDKALFEQAFSFHGKSFHRIQQMLPDKTIASLVKYYYSWKKTR	-0.216 ± 0.14
DEWTVEDKSLFEQAFSFHGKSFHRIQQMLPDKTIASLVKYYYSWKKTR	-0.143 ± 0.15
DEWTVEDKKLFEQAFSFHGKSFHRIQQMLPDKTIASLVKYYYSWKKTR	-0.201 ± 0.18
DEWTVEDKHLFEQAFSFHGKSFHRIQQMLPDKTIASLVKYYYSWKKTR	-0.237 ± 0.2
DEWTVEDKRLFEQAFSFHGKSFHRIQQMLPDKTIASLVKYYYSWKKTR	-0.167 ± 0.12
DEWTVEDKPLFEQAFSFHGKSFHRIQQMLPDKTIASLVKYYYSWKKTR	-0.828 ± 0.24
